Reference: patent US20190248888A1, “METHODS OF LOWERING BLOOD GLUCOSE LEVELS” (Regeneron Pharmaceuticals, Inc., priority 2016, published 2019)

Test system: isolated pancreatic islets from mice
Assay: RNAseq gene expression in isolated pancreatic islets of GCGR antibody treated mice (Table 5)
Format: in vivo, mouse
Conditions: isolated islets, 10 mg/kg, 21 days
Protocol: Mouse islets were isolated by density gradient separation after perfusing pancreas with Liberase TL (Roche, Indianapolis) through the common bile duct. Following a 13 min digestion at 37° C., the pancreas solution was washed and filtered through a 400-μm wire mesh strainer and islets were separated by Histopaque gradient centrifugation (Sigma-Aldrich). Isolated islets were cultured overnight in RPMI-1640 medium supplemented with 10% (v/v) FBS, 10 mM HEPES, 50 μM β-mercaptoethanol, 1.0 mM sodium-pyruvate, 100 U/mL penicillin and 100 μg/mL streptomycin at 37° C. with a 5% CO2 in air atmosphere.
Total RNA was purified from all samples using MagMAX™-96 for Microarrays Total RNA Isolation Kit (Ambion by Life Technologies) according to manufacturer's specifications. Genomic DNA was removed using MagMAX™Turbo™DNase Buffer and TURBO DNase from the MagMAX kit listed above (Ambion by Life Technologies). mRNA was purified from total RNA using Dynabeads® mRNA Purification Kit (Invitrogen). Strand-specific RNA-seq libraries were prepared using ScriptSeq™ mRNA-Seq Library Preparation Kit (Epicentre). Twelve-cycle PCR was performed to amplify libraries. Sequencing was performed on Illumina HiSeq®2000 (Illumina) by multiplexed single-read run with 33 cycles.
Raw sequence data (BCL files) were converted to FASTQ format via Illumina Casava 1.8.2. Reads were decoded based on their barcodes and read quality was evaluated with FastQC (http://www.bioinformatics.babraham.ac.uk/projects/fastqc/). Reads were mapped to the mouse transcriptome (NCBI GRCh37) using CLC Genomics Workbench Version 7.0 (CLCbio) or TopHat2 (Version 2.0.10) allowing two mismatches. Reads mapped to the exons of a gene were summed at the gene level. To identify differentially expressed genes, the statistical significance (p-value) of the differential expressions was assessed with DESeq package (version 1.6 or 2.0). […]

B1: α-GCGR: potent monoclonal GCGR blocking antibody, HCVR/LCVR SEQ ID NOs: 86/88 (antibody, V domains shown)
VH: EVQLVESGGGLVQPGGSLRLSCAASGFTFSNYLMNWVRQAPGKGLEWLANIQEDGIEKYYVDSVKGRFTISRDNAKNSLYLQMNSLRAEDTAVYYCAREPSHYDILTGYDYYYGMDVWGQGTTVTVS
VL: DIQMTQSPSSLSASVGDRVTITCRASQGIRNDLGWYQQKPGKAPKRLIYAASSLQSGVPSRFSGSGSGTEFILTVSSLQPEDFATYYCLQYNSNPFTFGPGTKVDIK
1700086L19Rik RPKM (gene 1700086L19Rik): 119.24 RPKM | 1810011O10Rik RPKM (gene 1810011O10Rik): 5.88 RPKM | 1810041L15Rik RPKM (gene 1810041L15Rik): 3.14 RPKM | 4930539E08Rik RPKM (gene 4930539E08Rik): 5.64 RPKM | 9030617O03Rik RPKM (gene 9030617O03Rik): 5.31 RPKM | AW551984 RPKM (gene AW551984): 5.27 RPKM | Acta1 RPKM (gene Acta1): 1.05 RPKM | Agpat4 RPKM (gene Agpat4): 4.89 RPKM | Agt RPKM (gene Agt): 22.33 RPKM | Ang RPKM (gene Ang): 69.38 RPKM | Ano1 RPKM (gene Ano1): 1.26 RPKM | Anxa3 RPKM (gene Anxa3): 11.67 RPKM | Anxa13 RPKM (gene Anxa13): 0.65 RPKM | Apoa2 RPKM (gene Apoa2): 10.76 RPKM | Apod RPKM (gene Apod): 2.75 RPKM | Apol7a RPKM (gene Apol7a): 0.28 RPKM | Arg1 RPKM (gene Arg1): 59.62 RPKM | Arx RPKM (gene Arx): 6.42 RPKM | Asb11 RPKM (gene Asb11): 1.00 RPKM | Avpr1b RPKM (gene Avpr1b): 4.45 RPKM | Basp1 RPKM (gene Basp1): 11.31 RPKM | Blnk RPKM (gene Blnk): 3.87 RPKM | Bok RPKM (gene Bok): 1.31 RPKM | Car9 RPKM (gene Car9): 0.79 RPKM | Cdc42ep1 RPKM (gene Cdc42ep1): 1.77 RPKM | Clec2d RPKM (gene Clec2d): 9.10 RPKM | Clic6 RPKM (gene Clic6): 0.26 RPKM | Clu RPKM (gene Clu): 481.69 RPKM | Cnih2 RPKM (gene Cnih2): 1.98 RPKM | Cobl RPKM (gene Cobl): 2.27 RPKM | Ctse RPKM (gene Ctse): 1.73 RPKM | Dbpht2 RPKM (gene Dbpht2): 27.59 RPKM | Dmbt1 RPKM (gene Dmbt1): 10.80 RPKM | Dpp6 RPKM (gene Dpp6): 8.00 RPKM | Drc1 RPKM (gene Drc1): 4.67 RPKM | Eda2r RPKM (gene Eda2r): 1.98 RPKM | Eef1a2 RPKM (gene Eef1a2): 35.85 RPKM | Ehf RPKM (gene Ehf): 10.90 RPKM | Etv1 RPKM (gene Etv1): 33.99 RPKM | F5 RPKM (gene F5): 1.71 RPKM | Ffar4 RPKM (gene Ffar4): 5.88 RPKM | Fgd3 RPKM (gene Fgd3): 0.83 RPKM | Fgl2 RPKM (gene Fgl2): 37.91 RPKM | Gamt RPKM (gene Gamt): 0.58 RPKM | Gbp8 RPKM (gene Gbp8): 7.39 RPKM | Gbp9 RPKM (gene Gbp9): 4.03 RPKM | Gc RPKM (gene Gc): 153.00 RPKM | Gcg RPKM (gene Gcg): 63254.16 RPKM | Gcnt4 RPKM (gene Gcnt4): 3.02 RPKM | Gfra1 RPKM (gene Gfra1): 3.43 RPKM | Gfra3 RPKM (gene Gfra3): 8.18 RPKM | Gm609 RPKM (gene Gm609): 6.28 RPKM | Gm20554 RPKM (gene Gm20554): 2.33 RPKM | Gng2 RPKM (gene Gng2): 7.35 RPKM | Gpr119 RPKM (gene Gpr119): 15.35 RPKM | Gpx3 RPKM (gene Gpx3): 638.48 RPKM | Hspb1 RPKM (gene Hspb1): 10.32 RPKM | Ifih1 RPKM (gene Ifih1): 10.68 RPKM | Igsf23 RPKM (gene Igsf23): 0.40 RPKM | Irx1 RPKM (gene Irx1): 5.96 RPKM | Irx2 RPKM (gene Irx2): 8.92 RPKM | Itgb4 RPKM (gene Itgb4): 1.65 RPKM | Jchain RPKM (gene Jchain): 74.91 RPKM | Kcna2 RPKM (gene Kcna2): 0.81 RPKM | Kcnab3 RPKM (gene Kcnab3): 2.28 RPKM | Kcnf1 RPKM (gene Kcnf1): 0.86 RPKM | Kcnk3 RPKM (gene Kcnk3): 8.14 RPKM | Klb RPKM (gene Klb): 4.59 RPKM | Klhl13 RPKM (gene Klhl13): 5.34 RPKM | Krt19 RPKM (gene Krt19): 26.52 RPKM | Krt20 RPKM (gene Krt20): 0.65 RPKM | Krt23 RPKM (gene Krt23): 2.17 RPKM | Lamb3 RPKM (gene Lamb3): 1.16 RPKM | Mafb RPKM (gene Mafb): 24.19 RPKM | Mamld1 RPKM (gene Mamld1): 5.64 RPKM | Mapk13 RPKM (gene Mapk13): 2.86 RPKM | Matn2 RPKM (gene Matn2): 2.36 RPKM | Ndst4 RPKM (gene Ndst4): 6.30 RPKM | Necab2 RPKM (gene Necab2): 7.29 RPKM | Nefm RPKM (gene Nefm): 6.35 RPKM | Npr1 RPKM (gene Npr1): 3.07 RPKM | Nptxr RPKM (gene Nptxr): 4.03 RPKM | Nsg2 RPKM (gene Nsg2): 3.49 RPKM | Ntn1 RPKM (gene Ntn1): 0.65 RPKM | Nudt11 RPKM (gene Nudt11): 8.49 RPKM | Nyap1 RPKM (gene Nyap1): 3.82 RPKM | Ocrl RPKM (gene Ocrl): 37.04 RPKM | Oit1 RPKM (gene Oit1): 4.78 RPKM | Olfm3 RPKM (gene Olfm3): 3.59 RPKM | Oxtr RPKM (gene Oxtr): 7.25 RPKM | Pdk4 RPKM (gene Pdk4): 25.17 RPKM | Peg10 RPKM (gene Peg10): 17.17 RPKM | Pla2g2d RPKM (gene Pla2g2d): 5.69 RPKM | Ptf1a RPKM (gene Ptf1a): 0.52 RPKM | Ptprd RPKM (gene Ptprd): 4.67 RPKM | Ptprg RPKM (gene Ptprg): 3.12 RPKM | Rasd1 RPKM (gene Rasd1): 10.12 RPKM | Rbms3 RPKM (gene Rbms3): 2.38 RPKM | Rbp4 RPKM (gene Rbp4): 210.71 RPKM | Rcn1 RPKM (gene Rcn1): 12.75 RPKM | Rragb RPKM (gene Rragb): 33.15 RPKM | Sema3e RPKM (gene Sema3e): 2.28 RPKM | Serpinb6b RPKM (gene Serpinb6b): 1.59 RPKM | Serpine2 RPKM (gene Serpine2): 10.10 RPKM | Serping1 RPKM (gene Serping1): 82.99 RPKM | Sftpd RPKM (gene Sftpd): 4.65 RPKM | Sgce RPKM (gene Sgce): 10.55 RPKM | Sh2d4a RPKM (gene Sh2d4a): 0.65 RPKM | Sh3bgr RPKM (gene Sh3bgr): 3.39 RPKM | Slc38a3 RPKM (gene Slc38a3): 0.79 RPKM | Slc38a5 RPKM (gene Slc38a5): 52.26 RPKM | Smarca1 RPKM (gene Smarca1): 15.49 RPKM | Spns2 RPKM (gene Spns2): 0.98 RPKM | St8sia1 RPKM (gene St8sia1): 2.35 RPKM | Syt16 RPKM (gene Syt16): 2.26 RPKM | Tead2 RPKM (gene Tead2): 2.17 RPKM | Tesc RPKM (gene Tesc): 4.72 RPKM | Tmsb15b1 RPKM (gene Tmsb15b1): 28.28 RPKM | Tspan1 RPKM (gene Tspan1): 1.40 RPKM | Ttr RPKM (gene Ttr): 5356.49 RPKM | Vnn1 RPKM (gene Vnn1): 0.42 RPKM | Vwde RPKM (gene Vwde): 5.37 RPKM | Wfdc16 RPKM (gene Wfdc16): 5.87 RPKM | Wnk3 RPKM (gene Wnk3): 9.33 RPKM
